Here are results for four molecules from patent publication US20070010428A1, “Inhibitors of signal transduction and activator of transcription 3” (priority 2004, published 2007).

Assay [1] concerns the target Stat3 (as in the EMSA of Table 1), P40763. Kind of assay: EMSA: inhibition of Stat3 dimerization and DNA binding, average of two determinations.
Assay [2] deals with full length Stat3, P40763. Description: fluorescence polarization, full length Stat3 titrated into the FP probe. (In general: In fluorescence polarisation assays a small probe gives low polarisation when free and higher when bound to something large.)
Chain of full length Stat3, P40763 (P40763 whole entry): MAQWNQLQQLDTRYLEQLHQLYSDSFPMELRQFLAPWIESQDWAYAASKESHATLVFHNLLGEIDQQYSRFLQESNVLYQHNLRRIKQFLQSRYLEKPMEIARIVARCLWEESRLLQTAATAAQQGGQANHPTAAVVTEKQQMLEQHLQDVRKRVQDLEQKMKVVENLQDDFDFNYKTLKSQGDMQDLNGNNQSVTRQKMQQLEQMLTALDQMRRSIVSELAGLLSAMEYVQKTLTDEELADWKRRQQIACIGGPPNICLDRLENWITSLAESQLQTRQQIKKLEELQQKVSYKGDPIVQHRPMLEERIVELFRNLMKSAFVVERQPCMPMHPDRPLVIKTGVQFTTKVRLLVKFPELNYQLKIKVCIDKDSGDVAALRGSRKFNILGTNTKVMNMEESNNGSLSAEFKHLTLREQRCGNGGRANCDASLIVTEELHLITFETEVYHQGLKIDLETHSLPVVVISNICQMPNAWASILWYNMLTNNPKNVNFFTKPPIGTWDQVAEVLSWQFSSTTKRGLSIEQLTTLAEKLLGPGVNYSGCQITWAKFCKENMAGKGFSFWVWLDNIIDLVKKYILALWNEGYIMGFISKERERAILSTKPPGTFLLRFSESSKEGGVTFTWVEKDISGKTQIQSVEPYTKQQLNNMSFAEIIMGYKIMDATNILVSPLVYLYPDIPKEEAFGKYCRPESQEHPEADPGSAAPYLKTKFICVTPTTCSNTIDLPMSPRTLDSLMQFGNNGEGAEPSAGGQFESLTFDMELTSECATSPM

The term IC50 denotes the point on the concentration scale where inhibition reaches its midpoint. Lower therefore signals greater potency in that assay. The Kd is the free concentration of one partner at which half of the binding sites on the other are occupied at equilibrium, for simple one-to-one binding. Low values mean tighter binding, high ones weaker binding.

[ ]: non-standard residue; d: D form. pY = N[C@@H](Cc1ccc(OP(=O)(O)O)cc1)C(=O)O

Chain of Stat3 (as in the EMSA of Table 1), P40763 (P40763 whole entry): as above

With YHNQPL (modifications not checked) [Ac-Y(p)HNQPL-NH2 (EGFR Tyr 1086 hexapeptide)], the IC50 in assay [1] was found to be 150 µM.
The same measure, in the same setting: next, YINQSV (modifications not checked) [Ac-Y(p)INQSV-NH2 (EGFR Tyr 1068 hexapeptide)]: 30 µM.
For {fluorescein‑5‑carboxyl}-A[pY]LPQTV-NH2 [fluorescein-5-carboxyl-Ala-pTyr-Leu-Pro-Gln-Thr-Val-NH2], the Kd in assay [2] turned out to be 0.05 µM.

B1: Ac-pTyr-Leu-Lys-Thr-Lys-Phe-NH2 (peptide)
chain: Ac-[pY]LKTKF-NH2
SMILES: CC(=O)N[C@@H](Cc1ccc(OP(=O)(O)O)cc1)C(=O)N[C@@H](CC(C)C)C(=O)N[C@@H](CCCCN)C(=O)N[C@H](C(=O)N[C@@H](CCCCN)C(=O)N[C@@H](Cc1ccccc1)C(N)=O)[C@@H](C)O
In assay [1], B1 showed an IC50 of 20 µM.
